Data taken from patent US20090175872A1, “Treatment of Conditions Involving Demyelination” (BIOGEN Idec MA Inc., priority 2005, published 2009).

Legend:
A2B5+ oligodendrocytes = test: Differentiation of A2B5+ oligodendrocytes treated with Sp35-Fc (O4 staining); format: cell-based, rat; details: increasing concentrations versus control-Fc, 48 h, FIG. 8
Protocol: Enriched populations of oligodendrocytes were grown from female Long Evans P2 rats as described by Conn, Meth. Neurosci. 2:1-4 (Academic Press; 1990) with modifications as follows. Briefly, the forebrain was dissected and placed in Hank's buffered salt solution (IBSS; Invitrogen). The tissue was cut into 1-mm fragments and was incubated at 37° C. for 15 min in 0.01% trypsin and 10 μg/ml DNase. Dissociated cells were plated on poly-L-lysine-coated T75 tissue culture flasks and were grown at 37° C. for 10 d in DMEM medium with 20% fetal calf serum (Invitrogen). Oligodendrocyte precursors (A2B5^+) were collected by shaking the flask overnight at 200 rpm at 37° C., resulting in a 95% pure population. Cultures were maintained in high-glucose Dulbecco's modified Eagle's medium (DMEM with FGF/PDGF (10 ng/ml; Peprotech) for 1 week. Removal of FGF/PDGF allowed A2B5+ cells to differentiate into O4^+ premyelinating oligodendrocytes after 3-7 d, and to differentiate into O4^+ and MBP^+ mature oligodendrocytes after 7-10 d. These differentiation states are readily apparent from changes in morphology: AB5^+ cells are bipolar in shape, O4^+ premyelinating oligodendrocytes have longer and more branched processes and MBP^+ mature oligodendrocytes contain myelin sheet structures between processes. […]

mature oligodendrocytes = test: Mature oligodendrocyte survival and MBP expression; format: cell-based, rat
Protocol: Mature oligodendrocytes have a half-life in vitro of about 48 to 72 hours, with cells typically undergoing apoptosis after 72 hours. […] MBP expression was monitored as a marker for mature ologodendrocytes.

Caspase-3 = Caspase-3 activation in differentiated PC12 cells after NGF withdrawal (Caspase 3/7 Glo); format: cell-based; details: 18 hours after removal of NGF
Protocol: PC 12 cells (Neuroscreen) were differentiated in RPMI-1640 medium supplemented with 5% fetal bovine serum, 10% horse serum, 2 mM glutamine, 100 U/ml penicillin and […] streptomycin containing 200 ng/ml NGF for 7 days. For experiments, the culture media was replaced with NGF-free culture media containing Sp35-Fc, human IgG as a negative control (0.1-10 μM), or zVAD as a positive control (0.1 μM). 18 hours after NGF withdrawal, activated Caspase-3 was quantified using the Caspase 3/7 Glo kit (Promega) according to the manufacturer's instructions. 42 hours after NGF withdrawal, apoptotic cell death was quantified using a cell death detection ELISA kit (Roche) according to the manufacturer's instructions.

[1] = tested on: spinal cord injury in Long Evans rats; test: Spinal cord injury (dorsal hemisection), intrathecal mini-osmotic pump; format: in vivo, rat
Protocol: Spinal cord injury was induced in adult female Long Evans rats (190-210 g; Charles River). A dorsal hemisection was performed at T6/T7, completely interrupting the main dorsomedial and the minor dorsolateral corticospinal tract (CST) components. The cord was sterotaxically transected at a depth of 1.8 mm from the surface using a microscalpel. […] Postoperative care comprised analgesia (Buprenorphine/Buprenex, Reckitt Benckiset Healthcare Ltd., 0.05 mg/kg subcutaneously) every 8-12 hours for 3 days and antibiotic treatment (ampicillin, Bristol Myers Squibb, 100 mg/kg subcutaneously twice daily) for 7 days after surgery. Bladders were expressed manually twice a day for the duration of the study (4 weeks) or until return of function. On completion of the study, rats were anesthetized and trans-cardially perfused with heparinized saline followed by 4% paraformaldehyde (PFA). The spinal cords were removed, embedded in paraffin, and 10 μm sections were cut from for histological analysis.
To quantify apoptotic cell death after SCI, animals were euthanized 3 or 7 days after SCI and stained using anti-activated-Caspase-3 antibody (Cell Signaling Technologies) and TUNEL staining (Promega). The sections were also stained with anti-NeuN antibody (Chemicon) and anti-CC1 antibody (Calbiochem) to identify neurons and oligodendrocytes, respectively.

[2] = tested on: differentiated PC12 cells; test: Apoptotic cell death in differentiated PC12 cells after NGF withdrawal (cell death ELISA / TUNEL); format: cell-based
RhoA-GTP = RhoA-GTP levels in oligodendrocyte lysates (western blotting); format: cell-based, rat; details: versus corresponding control, FIG. 9A
Excerpt: A strong candidate signaling pathway that is implicated in the control of oligodendrocyte differentiation is the Rho family of GTPases. Rho GTPases regulate cellular morphology, and reduced RhoA-GTP amounts are required for oligodendrocyte differentiation. See Liang, X, et al., J. Neurosci. 24:7140-7149 (2004). To determine whether Sp35 signals through the RhoA pathway, RhoAGTP levels in cell lysates of oligodendrocytes treated with Sp35-Fc were compared with levels in the corresponding control via western blotting.

human ErbB2 = target: T1, human ErbB2 (Homo sapiens, UniProt P04626); test: AP-Sp35 binding to ErbB2-transfected CHO cells; details: pre-incubation with soluble fusion protein, FIG. 17B
T1 construct: expressed in transfected cells; host or cells: CHO cells, transient transfection with Fugene 6, assayed after 48 hours
Protocol: ErbB2 is a member of the type I family of transmembrane receptor tyrosine kinases. The family comprises four members: epidermal growth factor receptor (EGFR or ErbB1), ErB2 (HER2 or neu), ErbB3 and ErbB4. Oligodendrocyte differentiation is positively regulated by the ErbB2 receptor tyrosine kinase. To examine the potential interaction between Sp35 and ErB2, an N-terminal AP-tagged human Sp35 protein was tested for binding to human ErbB2-transfected Chinese hamster ovary (CHO) cells.
90% confluent CHO cells were transfected with various combinations of human ErbB2 vector expression plasmid using Fugene 6 reagents (Roche). After 48 hours, the transfected cells were washed with HBH (Hank's balanced salt solution, 1 mg/ml BSA, 20 mM HEPES (pH 7.0)) and incubated for 1.5 hours at 23° C. or […] with 4 μg/ml of AP-Sp35 (human placental alkaline phosphotase (AP) with an N-terminal six histidine tag, fused to the C-terminus of human Sp35 (residues 34-532), as described in Mi et al., Nat. Neurosci. 7:221-228 (2004)) or control AP-protein in HBH. Bound AP-Sp35 was detected directly or following detergent lysis of the cells by ELISA and enzymatic activity was quantified with 4-NPP as described in Mi et al. Nat. Neurosci. 7:221-228 (2004).
In order to identify the Sp35 domain that binds ErbB2, soluble truncated forms of AP-Sp35 were tested for binding. Both the LRR domain of Sp35 (amino acids 34-417 of SEQ ID NO:2) (AP-Sp35-LRR) and the extracellular domain of Sp35 (amino acids 34-532 of SEQ ID NO:2) (AP-Sp35) bound to ErbB2 expressed in CHO cells. […] FIGS. 17B and 17C.

B1: Sp35-Fc: extra-cellular portion of human Sp35 (residues 1-532) fused to the hinge and Fc region of human IgG1 (protein)
chain: TGCPPRCECSAQDRAVLCHRKRFVAVPEGIPTETRLLDLGKNRIKTLNQDEFASFPHLEELELNENIVSAVEPGAFNNLFNLRTLGLRSNRLKLIPLGVFTGLSNLTKLDISENKIVILLDYMFQDLYNLKSLEVGDNDLVYISHRAFSGLNSLEQLTLEKCNLTSIPTEALSHLHGLIVLRLRHLNINAIRDYSFKRLYRLKVLEISHWPYLDTMTPNCLYGLNLTSLSITHCNLTAVPYLAVRHLVYLRFLNLSYNPISTIEGSMLHELLRLQEIQLVGGQLAVVEPYAFRGLNYLRVLNVSGNQLTTLEESVFHSVGNLETLILDSNPLACDCRLLWVFRRRWRLNFNRQQPTCATPEFVQGKEFKDFPDVLLPNYFTCRRARIRDRKAQQVFVDEGHTVQFVCRADGDPPPAILWLSPRKHLVSAKSNGRLTVFPDGTLEVRYAQVQDNGTYLCIAANAGGNDSMPAHLHVRSYSPDWPHQPNKTFAFISNQPGE
modifications: left off: a dimerising Fc or GST
notes: extra-cellular portion of human Sp35 (residues 1-532) fused to the hinge and Fc region of human IgG1
differentiation of A2B5+ cells into O4+ cells (A2B5+ oligodendrocytes): promoted differentiation
survival rate for mature oligodendrocytes (mature oligodendrocytes; 10 μg/ml for 5 days, cell viability staining, versus control-Fc): significantly increased survival rate
increase in MBP protein expression (mature oligodendrocytes; cell staining and Western blot with anti-MBP antibody, versus control-Fc treated cells): approximately 3 fold
Caspase-3 activation (Caspase-3; 0.1 μM): reduced Caspase-3 activation
Caspase-3 activation compared with zVAD (0.1 μM) (Caspase-3; 1 or 10 μM, dose-dependent, FIG. 14): as effective as a neuroprotective dose of the caspase inhibitor zVAD
number of activated-Caspase-3-positive neurons and oligodendrocytes versus controls ([1]; 3 days after SCI, 0.25 μl/h of 25 μM intrathecal): significantly smaller
neuron and oligodendrocyte survival in tissue surrounding the lesion site versus controls ([1]; four weeks after SCI, anti-βIII-tubulin and anti-O4 staining): more neurons and oligodendrocytes survived
cells undergoing apoptosis (TUNEL assay) ([2]; 18 hours after NGF withdrawal, versus control, FIG. 13 legend): fewer cells undergoing apoptosis
cell death (TUNEL ELISA) ([2]; 42 hours after withdrawal of NGF, FIG. 13): significantly reduced cell death
reduction in RhoA-GTP (RhoA-GTP): threefold reduction
AP-Sp35 binding to ErbB2-expressing cells after pre-incubation (human ErbB2): blocked
